Data on 95 variants can be found in the supplement of paper PMC10567573.

Sequences and labels used below:
B1: TPD52L2 (parent)
chain: EAEEEELRAELTKVEEEIVTLRQV
B2: SFRS1 (parent)
chain: YSPRRSRGSPRYSPRHSRSRSRT
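Also: lentivirally expressed fusions sorted by FACS into six bins by GFP to DsRed ratio, PSI derived from sequencing read proportions per bin multiplied by bin number.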

The variants in the first data set derive from B1. Nature of the data set: protein stability index of a GFP-peptide fusion (GPS, HEK-293T) (PSI 1-6); higher = more stable. The note with it: c terminus: a fixed tail appended.
With LAEEEELRAELTKVEEEIVTLRQV, the protein stability index worked out at 2.57.
Turning to GAEEEELRAELTKVEEEIVTLRQV, the protein stability index was determined as 3.02.
Take SAEEEELRAELTKVEEEIVTLRQV: the protein stability index was determined as 2.97.
For FAEEEELRAELTKVEEEIVTLRQV, the protein stability index turned out to be 2.
As to AAEEEELRAELTKVEEEIVTLRQV, the protein stability index was 3.63.
Take RAEEEELRAELTKVEEEIVTLRQV: the protein stability index was 2.63.
Same read-out and setting: in the case of CAEEEELRAELTKVEEEIVTLRQV it was 2.89; in that of VAEEEELRAELTKVEEEIVTLRQV, 3.58.
For the variant YAEEEELRAELTKVEEEIVTLRQV, the protein stability index stood at 3.35.
Turning to DAEEEELRAELTKVEEEIVTLRQV, the protein stability index came out at 3.74.
Regarding TAEEEELRAELTKVEEEIVTLRQV, the protein stability index amounted to 2.79.
As to NAEEEELRAELTKVEEEIVTLRQV, the protein stability index turned out to be 2.5.
Consider HAEEEELRAELTKVEEEIVTLRQV, for which the protein stability index was found to be 3.07.
WAEEEELRAELTKVEEEIVTLRQV: the protein stability index came to 2.01.
Still for that read-out and setting: in the case of PAEEEELRAELTKVEEEIVTLRQV it was 3.43; in that of KAEEEELRAELTKVEEEIVTLRQV, 3.06.
Still for that read-out and setting: next, IAEEEELRAELTKVEEEIVTLRQV: 1.94; MAEEEELRAELTKVEEEIVTLRQV: 2.53; QAEEEELRAELTKVEEEIVTLRQV: 3.76.
Same read-out and setting: next, EHEEEELRAELTKVEEEIVTLRQV: 3.23; EDEEEELRAELTKVEEEIVTLRQV: 4.7.
Consider ESEEEELRAELTKVEEEIVTLRQV, for which the protein stability index is 3.42.
Consider ELEEEELRAELTKVEEEIVTLRQV, for which the protein stability index was 2.93.
Still for that read-out and setting: next, EFEEEELRAELTKVEEEIVTLRQV: 3.45; ENEEEELRAELTKVEEEIVTLRQV: 4.25.
As for EREEEELRAELTKVEEEIVTLRQV, the protein stability index is 3.29.
In the case of EKEEEELRAELTKVEEEIVTLRQV, the protein stability index was 3.04.
Consider EQEEEELRAELTKVEEEIVTLRQV, for which the protein stability index worked out at 4.57.
Regarding EWEEEELRAELTKVEEEIVTLRQV, the protein stability index stood at 2.88.
With EYEEEELRAELTKVEEEIVTLRQV, the protein stability index amounted to 3.1.
Consider EPEEEELRAELTKVEEEIVTLRQV, for which the protein stability index is 4.03.
For EIEEEELRAELTKVEEEIVTLRQV, the protein stability index was 2.67.
The same measure, in the same setting: next, ECEEEELRAELTKVEEEIVTLRQV: 3.17; ETEEEELRAELTKVEEEIVTLRQV: 2.8; EEEEEELRAELTKVEEEIVTLRQV: 4.6.
Turning to EMEEEELRAELTKVEEEIVTLRQV, the protein stability index turned out to be 2.8.
Consider EVEEEELRAELTKVEEEIVTLRQV, for which the protein stability index turned out to be 3.3.
Still for that read-out and setting: in the case of EGEEEELRAELTKVEEEIVTLRQV it was 4.06.
Consider EAEAEELRAELTKVEEEIVTLRQV, for which the protein stability index is 3.77.
On the same count and under the same terms, next, EAEHEELRAELTKVEEEIVTLRQV: 3.21; EAEMEELRAELTKVEEEIVTLRQV: 3.42; EAENEELRAELTKVEEEIVTLRQV: 4.34.
For the variant EAEREELRAELTKVEEEIVTLRQV, the protein stability index turned out to be 3.76.
In the case of EAEGEELRAELTKVEEEIVTLRQV, the protein stability index was determined as 3.23.
On the same count and under the same terms, next, EAESEELRAELTKVEEEIVTLRQV: 3.41.
For the variant EAETEELRAELTKVEEEIVTLRQV, the protein stability index was found to be 3.75.
In the case of EAEWEELRAELTKVEEEIVTLRQV, the protein stability index came out at 2.93.
Consider EAEPEELRAELTKVEEEIVTLRQV, for which the protein stability index was 3.68.
Consider EAEIEELRAELTKVEEEIVTLRQV, for which the protein stability index worked out at 3.73.
EAEKEELRAELTKVEEEIVTLRQV: the protein stability index was determined as 4.13.
The same measure, in the same setting: in the case of EAEVEELRAELTKVEEEIVTLRQV it was 3.63; in that of EAELEELRAELTKVEEEIVTLRQV, 3.81; in that of EAECEELRAELTKVEEEIVTLRQV, 2.93.
For the variant EAEDEELRAELTKVEEEIVTLRQV, the protein stability index came to 3.89.
EAEFEELRAELTKVEEEIVTLRQV: the protein stability index turned out to be 2.79.
Turning to EAEQEELRAELTKVEEEIVTLRQV, the protein stability index came to 4.02.
EAVEEELRAELTKVEEEIVTLRQV: the protein stability index stood at 3.22.
For the variant EAGEEELRAELTKVEEEIVTLRQV, the protein stability index came to 3.52.
As to EAMEEELRAELTKVEEEIVTLRQV, the protein stability index was 2.71.
Turning to EALEEELRAELTKVEEEIVTLRQV, the protein stability index stood at 2.76.
Regarding EANEEELRAELTKVEEEIVTLRQV, the protein stability index was 3.1.
EAWEEELRAELTKVEEEIVTLRQV: the protein stability index amounted to 3.43.
EAAEEELRAELTKVEEEIVTLRQV: the protein stability index turned out to be 3.04.
EAPEEELRAELTKVEEEIVTLRQV: the protein stability index turned out to be 2.92.
EACEEELRAELTKVEEEIVTLRQV: the protein stability index stood at 2.65.
Consider EAIEEELRAELTKVEEEIVTLRQV, for which the protein stability index came to 2.79.
As to EAQEEELRAELTKVEEEIVTLRQV, the protein stability index was determined as 2.73.
EASEEELRAELTKVEEEIVTLRQV: the protein stability index stood at 3.63.
On to EATEEELRAELTKVEEEIVTLRQV, for which the protein stability index came to 2.83.
Regarding EAHEEELRAELTKVEEEIVTLRQV, the protein stability index stood at 3.08.
Regarding EAKEEELRAELTKVEEEIVTLRQV, the protein stability index came out at 3.18.
Still for that read-out and setting: in the case of EAFEEELRAELTKVEEEIVTLRQV it was 2.45; in that of EAREEELRAELTKVEEEIVTLRQV, 3.04; in that of EADEEELRAELTKVEEEIVTLRQV, 4.29.
In the case of EAYEEELRAELTKVEEEIVTLRQV, the protein stability index was 2.86.

Variants of B2 are the subject of a further data set. The description is as above. To be noted: c terminus: native.
With YSPRRSRGSPRYSPRHSRSRSRR, the protein stability index worked out at 4.22.
Take YSPRRSRGSPRYSPRHSRSRSRE: the protein stability index is 4.56.
Regarding YSPRRSRGSPRYSPRHSRSRSRF, the protein stability index turned out to be 4.22.
Turning to YSPRRSRGSPRYSPRHSRSRSRQ, the protein stability index is 2.61.
As to YSPRRSRGSPRYSPRHSRSRSRP, the protein stability index is 4.23.
Take YSPRRSRGSPRYSPRHSRSRSRV: the protein stability index is 3.69.
Same read-out and setting: in the case of YSPRRSRGSPRYSPRHSRSRSRL it was 1.96; in that of YSPRRSRGSPRYSPRHSRSRSRK, 4.73.
For the variant YSPRRSRGSPRYSPRHSRSRSRY, the protein stability index was found to be 4.44.
On to YSPRRSRGSPRYSPRHSRSRSRI, for which the protein stability index came to 4.04.
Still for that read-out and setting: next, YSPRRSRGSPRYSPRHSRSRSRM: 3.33; YSPRRSRGSPRYSPRHSRSRSRW: 3.79.
In the case of YSPRRSRGSPRYSPRHSRSRSRD, the protein stability index worked out at 3.32.
With YSPRRSRGSPRYSPRHSRSRSRN, the protein stability index turned out to be 3.17.
On to YSPRRSRGSPRYSPRHSRSRSRC, for which the protein stability index worked out at 3.5.
Consider YSPRRSRGSPRYSPRHSRSRSRH, for which the protein stability index is 2.64.
Still for that read-out and setting: in the case of YSPRRSRGSPRYSPRHSRSRSRS it was 3.4; in that of YSPRRSRGSPRYSPRHSRSRSYT, 3.9; in that of YSPRRSRGSPRYSPRHSRSRSWT, 3.32.
The same measure, in the same setting: next, YSPRRSRGSPRYSPRHSRSRSVT: 4.05.
